Data on 4 molecules can be found in paper PMC7987009 (bioRxiv, 2021).

The target in assay [1] is SARS-CoV-2 spike receptor-binding domain (RBD), wild type (SARS-CoV-2, Wuhan-Hu-1 (wild type), UniProt P0DTC2). Briefly: ELISA. Background: In an ELISA, binding on a coated surface is turned into a signal by an enzyme label.
Assay [2] has as its target SARS-CoV-2 spike HexaPro (S), prefusion-stabilized trimer (SARS-CoV-2, Wuhan-Hu-1, HexaPro design, stabilised). Briefly: cell-based or functional assay.

B1: Nb105 (VHH)
VHH: HVQLVESGGGLVQAGGSLRLSCAVSGRTFSTYGMAWFRQAPGKERDFVATITRSGETTLYADSVKGRFTISRDNAKNTVYLQMNSLKIEDTAVYYCAVRRDSSWGYSRDLFEYDYWGQGTQVTVSS
Consider B1, for which the binding result in assay [1] is “binds”.

B2: Nb34 (VHH)
VHH: DVQLVESGGGLVQAGGSLRLSCAASGFTFSNYVMYWGRQAPGKGREWVSGIDSDGSDTAYASSVKGRFTISRDNAKNTLYLQMNNLKPEDTALYYCVKSKDPYGSPWTRSEFDDYWGQGTQVTVSS
As for B2, the binding result in assay [1] is reported as “binds”.

B3: Nb17 (VHH)
VHH: HVQLVESGGGLVQAGGSLRLSCAASGSIFSSNAMSWYRQAPGKQRELVASITSGGNADYADSVKGRFTISRDKNTVYPEMSSLKPADTAVYYCHAVGQEASAYAPRAYWGQGTQVTVSS
Regarding B3, the “IC50 of neutralisation of the virus in vitro” value in assay [2] is roughly 0.025 µg/mL.

B4: Nb20 (VHH)
VHH: QVQLVESGGGLVQAGGSLRLSCAVSGAGAHRVGWFRRAPGKEREFVAAIGASGGMTNYLDSVKGRFTISRDNAKNTIYLQMNSLKPQDTAVYYCAARDIETAEYIYWGQGTQVTVSS
As for B4, the binding result in assay [1] was “binds”.
